The values below come from US9739779B2, “Methods of screening for Janus kinase 3 interacting compounds” (priority 2013, dated 2017).

Assay [1] concerns the target T1, P-Villin (Homo sapiens, UniProt P09327).
T1 construct: made in house; host or cells: E. coli TKX1 (pGEX2T vector)
T1 sequence (P09327 1-827): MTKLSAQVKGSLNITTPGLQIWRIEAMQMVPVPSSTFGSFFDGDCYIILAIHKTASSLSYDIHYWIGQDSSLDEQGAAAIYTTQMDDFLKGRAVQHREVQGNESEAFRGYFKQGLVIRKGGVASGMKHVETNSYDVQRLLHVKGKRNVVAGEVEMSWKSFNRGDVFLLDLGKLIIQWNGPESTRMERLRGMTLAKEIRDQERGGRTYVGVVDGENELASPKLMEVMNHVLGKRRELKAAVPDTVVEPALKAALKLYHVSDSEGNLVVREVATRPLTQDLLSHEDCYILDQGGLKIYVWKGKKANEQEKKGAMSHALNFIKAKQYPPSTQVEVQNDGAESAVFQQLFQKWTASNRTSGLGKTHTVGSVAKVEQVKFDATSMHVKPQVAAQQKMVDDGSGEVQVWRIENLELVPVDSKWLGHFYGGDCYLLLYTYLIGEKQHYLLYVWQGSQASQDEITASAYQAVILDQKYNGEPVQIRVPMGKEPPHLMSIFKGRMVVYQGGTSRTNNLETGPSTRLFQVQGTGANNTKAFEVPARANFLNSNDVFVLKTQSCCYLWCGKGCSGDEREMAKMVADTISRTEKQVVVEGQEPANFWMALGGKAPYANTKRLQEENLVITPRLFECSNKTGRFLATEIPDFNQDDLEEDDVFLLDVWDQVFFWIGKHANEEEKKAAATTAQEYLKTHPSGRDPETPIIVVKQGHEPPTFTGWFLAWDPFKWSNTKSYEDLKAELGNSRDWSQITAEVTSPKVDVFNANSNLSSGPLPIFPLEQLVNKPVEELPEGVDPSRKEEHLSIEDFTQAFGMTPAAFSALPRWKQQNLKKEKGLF
The experiment in a line: Multiplate ELISA binding of GST-Jak3 and truncated Jak3 fusion proteins to P-Villin. How it is done:
Absorbance values for wells containing P-Villin contacted with GST alone were used as control, and data presented on the ordinate axis represent absorbance values after subtraction of control values.
(§1) To determine the ability of Jak3 to interact with natural compounds including biomolecules, binding studies were performed in a multiplate using the cytoskeletal protein, Villin, known in the art to be a substrate for P-Jak3. Multiplates pre-coated with P-Villin were contacted with increasing concentrations of GST-P-Jak3 fusion protein (test samples) or GST alone (control sample). Binding levels were measured using GST antibody as the primary binding partner, horse radish peroxidase conjugated antibody as the secondary binding partner and 3,3′,5,5′-tetramethylbenzidine as the colorimetric substrate. Raw absorbance data for the control samples were subtracted from the absorbance for the test samples to obtain the corrected absorbance values.
To determine whether the kinase domains of Jak3 are critical for Villin binding, recombinant GST-truncated-Jak3 fusion proteins shown in FIGS. 2C-2E were expressed in BL21 (for non-phosphorylated proteins) or TKX1 (for phosphorylated proteins) cells, and purified. Multiplates pre-coated with P-Villin were contacted with these GST-tagged recombinant truncated-Jak3 or with GST-tagged recombinant WT-Jak3, and binding measured as described supra.

For assay [2], the target named is T2, GST-P-Jak3 fusion protein (Mus musculus, UniProt Q62137).
T2 construct: made in house; host or cells: E. coli TKX1 (pGEX-4T vector)
T2 sequence (Q62137 with tags, fused parts or gaps): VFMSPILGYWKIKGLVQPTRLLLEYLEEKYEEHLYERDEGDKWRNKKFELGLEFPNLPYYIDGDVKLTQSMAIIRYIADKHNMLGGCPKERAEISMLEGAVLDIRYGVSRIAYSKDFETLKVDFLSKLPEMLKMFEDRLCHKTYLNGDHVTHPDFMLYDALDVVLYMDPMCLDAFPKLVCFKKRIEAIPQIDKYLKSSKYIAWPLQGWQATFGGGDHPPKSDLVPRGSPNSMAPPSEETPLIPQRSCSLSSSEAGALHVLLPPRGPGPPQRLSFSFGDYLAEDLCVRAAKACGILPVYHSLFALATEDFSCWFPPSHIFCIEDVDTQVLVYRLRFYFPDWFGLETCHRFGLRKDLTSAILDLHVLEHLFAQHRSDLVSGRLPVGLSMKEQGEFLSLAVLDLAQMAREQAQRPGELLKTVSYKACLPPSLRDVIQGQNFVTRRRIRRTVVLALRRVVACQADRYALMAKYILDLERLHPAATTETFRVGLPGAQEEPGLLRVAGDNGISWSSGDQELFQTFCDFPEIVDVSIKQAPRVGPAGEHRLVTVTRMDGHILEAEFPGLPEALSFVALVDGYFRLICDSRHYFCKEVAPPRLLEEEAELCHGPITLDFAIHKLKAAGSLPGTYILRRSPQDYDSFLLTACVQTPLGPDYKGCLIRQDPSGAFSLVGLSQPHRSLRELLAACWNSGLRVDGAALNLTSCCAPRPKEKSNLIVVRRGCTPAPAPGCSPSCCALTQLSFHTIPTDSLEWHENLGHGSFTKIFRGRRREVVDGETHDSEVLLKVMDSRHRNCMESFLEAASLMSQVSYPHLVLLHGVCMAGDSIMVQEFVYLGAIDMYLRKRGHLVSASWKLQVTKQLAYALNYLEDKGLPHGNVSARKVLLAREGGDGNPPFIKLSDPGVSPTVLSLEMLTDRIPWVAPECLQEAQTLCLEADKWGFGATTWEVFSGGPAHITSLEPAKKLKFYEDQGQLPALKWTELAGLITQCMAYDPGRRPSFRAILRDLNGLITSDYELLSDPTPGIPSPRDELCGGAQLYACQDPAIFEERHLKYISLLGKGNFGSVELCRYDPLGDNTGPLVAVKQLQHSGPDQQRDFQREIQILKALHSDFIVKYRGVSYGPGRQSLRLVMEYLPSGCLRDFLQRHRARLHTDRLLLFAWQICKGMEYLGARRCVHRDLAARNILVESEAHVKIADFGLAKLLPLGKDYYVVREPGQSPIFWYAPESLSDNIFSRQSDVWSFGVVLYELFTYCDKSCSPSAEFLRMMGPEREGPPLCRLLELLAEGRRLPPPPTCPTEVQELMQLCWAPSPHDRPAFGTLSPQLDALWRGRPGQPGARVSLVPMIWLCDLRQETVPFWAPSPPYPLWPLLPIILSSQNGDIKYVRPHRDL
The assay is described as follows: Multiplate ELISA binding of P-Villin to GST-P-Jak3. As to the method: GST is the reporter protein and the primary binding partner is a GST antibody.
as §1

For “P-WT-Jak3: phosphorylated GST-WT-Jak3 fusion protein (SEQ ID NO: 11) expressed in TKX1”, the Kd in assay [1] (plates pre-coated with P-Villin, read-out: dissociation constant (Kd)) was found to be 23 nM.
On to “WT-Jak3: non-phosphorylated GST-WT-Jak3 fusion protein (SEQ ID NO. 7) expressed in BL21”, for which, in assay [1] (FIG. 8A, GST-alone control subtracted), the “level of binding to P-Villin” value is “relatively lower level of binding”.

B1: P-Villin: recombinant phosphorylated cytoskeletal protein Villin expressed in E. coli TKX1 (protein)
chain: MTKLSAQVKGSLNITTPGLQIWRIEAMQMVPVPSSTFGSFFDGDCYIILAIHKTASSLSYDIHYWIGQDSSLDEQGAAAIYTTQMDDFLKGRAVQHREVQGNESEAFRGYFKQGLVIRKGGVASGMKHVETNSYDVQRLLHVKGKRNVVAGEVEMSWKSFNRGDVFLLDLGKLIIQWNGPESTRMERLRGMTLAKEIRDQERGGRTYVGVVDGENELASPKLMEVMNHVLGKRRELKAAVPDTVVEPALKAALKLYHVSDSEGNLVVREVATRPLTQDLLSHEDCYILDQGGLKIYVWKGKKANEQEKKGAMSHALNFIKAKQYPPSTQVEVQNDGAESAVFQQLFQKWTASNRTSGLGKTHTVGSVAKVEQVKFDATSMHVKPQVAAQQKMVDDGSGEVQVWRIENLELVPVDSKWLGHFYGGDCYLLLYTYLIGEKQHYLLYVWQGSQASQDEITASAYQAVILDQKYNGEPVQIRVPMGKEPPHLMSIFKGRMVVYQGGTSRTNNLETGPSTRLFQVQGTGANNTKAFEVPARANFLNSNDVFVLKTQSCCYLWCGKGCSGDEREMAKMVADTISRTEKQVVVEGQEPANFWMALGGKAPYANTKRLQEENLVITPRLFECSNKTGRFLATEIPDFNQDDLEEDDVFLLDVWDQVFFWIGKHANEEEKKAAATTAQEYLKTHPSGRDPETPIIVVKQGHEPPTFTGWFLAWDPFKWSNTKSYEDLKAELGNSRDWSQITAEVTSPKVDVFNANSNLSSGPLPIFPLEQLVNKPVEELPEGVDPSRKEEHLSIEDFTQAFGMTPAAFSALPRWKQQNLKKEKGLF
In the case of B1, the Kd in assay [2] (plates pre-coated with P-Villin, P-Jak3 0-400 nM, GST control subtracted, read-out: dissociation constant (Kd)) came to 23 nM. Further, in assay [2] (rearranged Hill equation plot), the “Hill coefficient (h)” value is 3.7.
